{"source": "paper PMC3101248", "target": "mouse VPS29 (isotopically labelled NMR sample) (mouse)", "test": "NMR titration; SNX1 titrated into 0.1 mM 15N-labelled VPS29, soFast 15N HMQC, 298 K, 600 MHz; 10 mM HEPES (pH 7.5), 100 mM NaCl, DTT"}
{"substance": "human SNX1 (recombinant, for NMR titrations) (from UniProt Q13596 1-522) (natural protein)", "values": [{"measurement": "Kd", "result": "> 150", "unit": "µM"}]}
